Biological target: the molecule itself
Assay: self-association: reducing and non-reducing SDS-PAGE and size exclusion chromatography of purified mHRF-His6

B1: C-terminally hexahistidine-tagged mouse HRF (mHRF-His6) (ligand)
chain: MIIYRDLISHDELFSDIYKIREIADGLCLEVEGKMVSRTEGAIDDSLIGGNASAEGPEGEGTESTVVTGVDIVMNHHLQETSFTKEAYKKYIKDYMKSLKGKLEEQKPERVKPFMTGAAEQIKHILANFNNYQFFIGENMNPDGMVALLDYREDGVTPFMIFFKDGLEMEKCHHHHHH
notes: Expressed in E. coli BL21(DE3) from pET-24a(+)
binding result: binds

— US20130084293A1 (LA JOLLA INSTITUTE FOR ALLERGY AND IMMUNOLOGY, published 2013)
